Measurements from patent US20240425885.

Legend:
Test in all cases: cleavage_in_vitro
[1] = tested on: T1, OMNI-99 (metagenomic, unknown); conditions: TXTL; PAM NAGACNNN
T1 sequence: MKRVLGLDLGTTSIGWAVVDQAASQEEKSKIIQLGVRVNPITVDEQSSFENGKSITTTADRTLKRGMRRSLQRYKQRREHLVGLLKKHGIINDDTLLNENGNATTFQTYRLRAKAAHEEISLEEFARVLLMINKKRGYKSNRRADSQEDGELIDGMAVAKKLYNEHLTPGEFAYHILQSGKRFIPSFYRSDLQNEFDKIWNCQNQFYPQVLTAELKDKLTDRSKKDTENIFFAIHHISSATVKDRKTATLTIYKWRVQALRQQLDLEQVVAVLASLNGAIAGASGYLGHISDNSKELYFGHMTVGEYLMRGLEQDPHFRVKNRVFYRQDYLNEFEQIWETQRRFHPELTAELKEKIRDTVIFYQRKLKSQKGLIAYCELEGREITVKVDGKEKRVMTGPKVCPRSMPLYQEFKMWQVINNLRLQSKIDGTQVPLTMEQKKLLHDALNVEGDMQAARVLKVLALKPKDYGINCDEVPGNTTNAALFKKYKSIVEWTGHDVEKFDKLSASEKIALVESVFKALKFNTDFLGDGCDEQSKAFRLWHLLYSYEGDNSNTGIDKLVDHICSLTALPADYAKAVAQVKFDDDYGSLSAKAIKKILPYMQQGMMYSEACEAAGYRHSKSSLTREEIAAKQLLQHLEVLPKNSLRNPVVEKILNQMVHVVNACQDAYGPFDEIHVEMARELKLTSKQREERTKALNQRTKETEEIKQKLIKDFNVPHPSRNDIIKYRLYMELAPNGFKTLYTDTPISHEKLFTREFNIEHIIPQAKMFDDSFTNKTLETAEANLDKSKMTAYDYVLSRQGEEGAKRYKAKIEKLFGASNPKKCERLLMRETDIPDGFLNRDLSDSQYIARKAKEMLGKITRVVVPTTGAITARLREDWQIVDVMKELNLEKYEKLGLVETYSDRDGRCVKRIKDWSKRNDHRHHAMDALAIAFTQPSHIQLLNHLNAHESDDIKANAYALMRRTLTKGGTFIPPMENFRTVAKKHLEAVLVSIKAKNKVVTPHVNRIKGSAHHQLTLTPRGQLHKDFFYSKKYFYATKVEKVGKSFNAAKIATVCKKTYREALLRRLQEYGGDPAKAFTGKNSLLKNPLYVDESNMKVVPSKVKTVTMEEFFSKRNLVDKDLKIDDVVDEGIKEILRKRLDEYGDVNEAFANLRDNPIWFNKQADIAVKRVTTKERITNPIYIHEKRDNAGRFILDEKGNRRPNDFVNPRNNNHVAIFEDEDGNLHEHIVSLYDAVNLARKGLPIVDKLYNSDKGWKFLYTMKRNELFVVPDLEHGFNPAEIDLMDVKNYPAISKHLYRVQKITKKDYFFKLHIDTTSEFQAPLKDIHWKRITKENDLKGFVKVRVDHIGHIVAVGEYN

[2] = tested on: T2, OMNI-96 (metagenomic, unknown); conditions: TXTL; PAM NYAAGNNN
T2 sequence: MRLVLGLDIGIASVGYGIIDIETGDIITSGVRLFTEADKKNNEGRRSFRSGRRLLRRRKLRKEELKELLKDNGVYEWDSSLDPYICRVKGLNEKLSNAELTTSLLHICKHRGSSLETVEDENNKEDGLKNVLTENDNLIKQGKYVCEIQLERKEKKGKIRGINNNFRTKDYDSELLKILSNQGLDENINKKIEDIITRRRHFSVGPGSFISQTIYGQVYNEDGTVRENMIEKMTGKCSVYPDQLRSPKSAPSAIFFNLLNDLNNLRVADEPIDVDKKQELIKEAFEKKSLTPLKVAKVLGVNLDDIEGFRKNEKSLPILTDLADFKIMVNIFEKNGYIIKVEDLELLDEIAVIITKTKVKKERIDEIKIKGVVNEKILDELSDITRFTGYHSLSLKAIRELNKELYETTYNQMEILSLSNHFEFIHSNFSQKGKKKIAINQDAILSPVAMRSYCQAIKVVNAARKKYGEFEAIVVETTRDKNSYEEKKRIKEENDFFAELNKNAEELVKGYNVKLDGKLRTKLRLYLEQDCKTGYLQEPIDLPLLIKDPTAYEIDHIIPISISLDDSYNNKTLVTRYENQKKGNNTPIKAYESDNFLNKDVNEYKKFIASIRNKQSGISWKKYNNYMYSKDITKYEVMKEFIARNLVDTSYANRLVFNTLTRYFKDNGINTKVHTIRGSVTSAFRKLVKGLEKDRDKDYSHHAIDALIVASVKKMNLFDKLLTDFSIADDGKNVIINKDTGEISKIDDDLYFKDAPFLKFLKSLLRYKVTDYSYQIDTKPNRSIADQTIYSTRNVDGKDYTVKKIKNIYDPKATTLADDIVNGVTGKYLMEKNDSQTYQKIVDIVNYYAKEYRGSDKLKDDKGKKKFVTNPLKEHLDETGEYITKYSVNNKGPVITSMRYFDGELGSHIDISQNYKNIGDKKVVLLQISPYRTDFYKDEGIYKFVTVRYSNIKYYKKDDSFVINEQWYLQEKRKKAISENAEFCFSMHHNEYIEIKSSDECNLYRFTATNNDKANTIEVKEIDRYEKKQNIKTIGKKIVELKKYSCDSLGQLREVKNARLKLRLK

[3] = tested on: T3, OMNI-106 (metagenomic, unknown); conditions: TXTL; PAM NRKAACNN
T3 sequence: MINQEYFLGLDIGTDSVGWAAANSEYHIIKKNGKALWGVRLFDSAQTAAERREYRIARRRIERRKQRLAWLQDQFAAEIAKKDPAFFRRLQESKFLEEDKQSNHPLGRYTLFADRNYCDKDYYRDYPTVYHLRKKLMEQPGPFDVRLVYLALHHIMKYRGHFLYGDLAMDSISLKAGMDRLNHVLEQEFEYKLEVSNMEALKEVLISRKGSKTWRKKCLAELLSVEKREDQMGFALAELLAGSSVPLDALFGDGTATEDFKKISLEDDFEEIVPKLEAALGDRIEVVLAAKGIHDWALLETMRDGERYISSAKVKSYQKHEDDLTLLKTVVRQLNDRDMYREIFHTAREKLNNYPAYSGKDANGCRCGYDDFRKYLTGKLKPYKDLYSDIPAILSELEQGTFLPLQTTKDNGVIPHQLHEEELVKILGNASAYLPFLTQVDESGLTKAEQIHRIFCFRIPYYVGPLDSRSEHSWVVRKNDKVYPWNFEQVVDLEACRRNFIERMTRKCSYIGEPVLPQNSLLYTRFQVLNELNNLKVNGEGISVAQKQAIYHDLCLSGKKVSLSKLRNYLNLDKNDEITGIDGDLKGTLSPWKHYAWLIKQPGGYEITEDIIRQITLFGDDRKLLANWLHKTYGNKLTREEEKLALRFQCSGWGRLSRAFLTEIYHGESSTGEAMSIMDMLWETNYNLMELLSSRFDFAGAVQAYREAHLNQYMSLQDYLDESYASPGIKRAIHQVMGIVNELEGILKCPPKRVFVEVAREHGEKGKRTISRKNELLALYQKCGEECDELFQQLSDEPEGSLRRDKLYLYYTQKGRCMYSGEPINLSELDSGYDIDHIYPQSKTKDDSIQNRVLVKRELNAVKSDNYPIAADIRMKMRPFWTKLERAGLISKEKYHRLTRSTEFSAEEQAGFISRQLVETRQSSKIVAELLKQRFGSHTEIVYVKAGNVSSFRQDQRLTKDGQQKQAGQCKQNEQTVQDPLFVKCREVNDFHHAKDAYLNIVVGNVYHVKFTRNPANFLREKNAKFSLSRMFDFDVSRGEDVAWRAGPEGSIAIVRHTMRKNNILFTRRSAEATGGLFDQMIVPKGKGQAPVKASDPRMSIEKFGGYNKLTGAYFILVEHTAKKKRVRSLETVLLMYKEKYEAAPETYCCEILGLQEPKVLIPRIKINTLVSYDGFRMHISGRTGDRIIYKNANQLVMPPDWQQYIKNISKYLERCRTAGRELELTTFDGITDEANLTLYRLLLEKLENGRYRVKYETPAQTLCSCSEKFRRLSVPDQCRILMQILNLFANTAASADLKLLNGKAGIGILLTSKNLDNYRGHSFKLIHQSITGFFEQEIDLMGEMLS

[4] = tested on: T4, OMNI-98 (metagenomic, unknown); conditions: TXTL; PAM NNAAATNN
T4 sequence: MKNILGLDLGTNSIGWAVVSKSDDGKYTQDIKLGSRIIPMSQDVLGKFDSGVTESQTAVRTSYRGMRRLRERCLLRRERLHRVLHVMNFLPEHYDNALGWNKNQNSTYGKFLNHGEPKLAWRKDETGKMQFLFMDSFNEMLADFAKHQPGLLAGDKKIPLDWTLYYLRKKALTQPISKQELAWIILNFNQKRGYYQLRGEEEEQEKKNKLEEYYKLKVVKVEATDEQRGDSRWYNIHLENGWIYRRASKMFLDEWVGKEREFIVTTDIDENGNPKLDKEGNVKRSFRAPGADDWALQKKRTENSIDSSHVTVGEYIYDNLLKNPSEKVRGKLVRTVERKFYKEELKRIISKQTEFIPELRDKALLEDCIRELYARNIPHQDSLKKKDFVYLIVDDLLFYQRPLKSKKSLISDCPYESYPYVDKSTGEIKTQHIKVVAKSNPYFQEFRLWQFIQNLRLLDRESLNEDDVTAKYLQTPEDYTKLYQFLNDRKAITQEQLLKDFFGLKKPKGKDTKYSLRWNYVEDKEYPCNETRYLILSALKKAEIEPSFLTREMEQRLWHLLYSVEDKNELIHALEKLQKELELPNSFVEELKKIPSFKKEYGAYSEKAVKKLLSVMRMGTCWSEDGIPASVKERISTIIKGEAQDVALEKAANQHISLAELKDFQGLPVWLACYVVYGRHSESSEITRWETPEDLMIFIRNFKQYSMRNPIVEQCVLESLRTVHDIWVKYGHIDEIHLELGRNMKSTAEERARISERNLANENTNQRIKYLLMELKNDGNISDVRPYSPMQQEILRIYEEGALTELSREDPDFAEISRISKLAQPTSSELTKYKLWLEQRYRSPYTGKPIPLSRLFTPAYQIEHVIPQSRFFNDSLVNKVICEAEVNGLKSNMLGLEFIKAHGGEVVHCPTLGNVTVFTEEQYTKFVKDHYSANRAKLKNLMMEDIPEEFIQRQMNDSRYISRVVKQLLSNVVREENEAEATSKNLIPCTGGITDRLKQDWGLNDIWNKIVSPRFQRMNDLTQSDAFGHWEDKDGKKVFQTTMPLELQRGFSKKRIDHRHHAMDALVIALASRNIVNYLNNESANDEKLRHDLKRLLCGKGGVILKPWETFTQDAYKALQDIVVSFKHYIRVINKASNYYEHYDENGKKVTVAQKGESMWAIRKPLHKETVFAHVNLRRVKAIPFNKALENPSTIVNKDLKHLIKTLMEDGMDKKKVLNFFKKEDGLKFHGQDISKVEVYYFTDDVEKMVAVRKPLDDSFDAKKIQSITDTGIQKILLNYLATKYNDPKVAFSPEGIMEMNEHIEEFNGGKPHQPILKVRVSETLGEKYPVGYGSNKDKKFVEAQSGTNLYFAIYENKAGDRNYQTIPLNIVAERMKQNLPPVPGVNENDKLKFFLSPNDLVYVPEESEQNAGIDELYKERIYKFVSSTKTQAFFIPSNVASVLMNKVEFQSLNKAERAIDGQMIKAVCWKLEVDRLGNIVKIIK

“GGAAGAGCAGAGCCUUGGUCUCGUUGUGAAUUGCUUUCGAAAGAAGCAAUUCACAAUAAGGAUUAUUCCGUUGUGAAAACAUCAGGAGCGGGUUCUACUCGCUCUUUUUU / GGAAGAGCAGAGCCTTGGTCTCNNNNNNNN / NNNNNNNNGAGACCAAGGCTCTGCTCTTCC [T2 sgRNA 10 V1 ; T2 protospacer + 8N PAM library (pbPOS T2)]” showed an activity (1-depletion score) [1] of 0.93.
Work on “GGAAGAGCAGAGCCUUGGUCUCGUUUUGCUACCCUAAAUUAGAAAAAUAUUAGGACCUAGCAAAACAAGGCUUUAUGCCGAAAUCGGAGUCGACGGGCUCCUUUUUU / GGAAGAGCAGAGCCTTGGTCTCNNNNNNNN / NNNNNNNNGAGACCAAGGCTCTGCTCTTCC [T2 sgRNA 7 V1 ; T2 protospacer + 8N PAM library (pbPOS T2)]” yielded an activity (1-depletion score) [2] of 0.57.
In the case of “GGAAGAGCAGAGCCUUGGUCUCGUUUGAGAGUCGUGCUGGAAACAACACGACGGGUUCAAAUACGGCUUUGCCAAAACCGCUGGUUUGAUCCAGCUUCACAGUGUGUGAGGGUAAAAAGUCCGCUAUGCGGACUUUUUUU / GGAAGAGCAGAGCCTTGGTCTCNNNNNNNN / NNNNNNNNGAGACCAAGGCTCTGCTCTTCC [T2 sgRNA 15 V1 ; T2 protospacer + 8N PAM library (pbPOS T2)]”, the activity (1-depletion score) [3] is reported as 0.95.
In the case of “GGAAGAGCAGAGCCUUGGUCUCGUUGUGAAUUGCUUUCGAAAGAAAGCAAUUCACAAUAAGGAUUAUUCCGUUGUGAAAACAUUUAGGACGGGGCAACUCGUCCUUUGUUUUUUU / GGAAGAGCAGAGCCTTGGTCTCNNNNNNNN / NNNNNNNNGAGACCAAGGCTCTGCTCTTCC [T2 sgRNA 9 V1 ; T2 protospacer + 8N PAM library (pbPOS T2)]”, the activity (1-depletion score) [4] is reported as 0.93.
